First the molecules themselves.
B1: CPEB3 Ribozyme (parent)
chain: GGGGGCCACAGCAGAAGCGUUCACGUCGCGGCCCCUGUCAGAUUCUGGUGAAUCUGCGAAUUCUGCUGU

The variants in this data set derive from B1. Nature of the data set: self-cleavage, relative activity (ratio to wild type); higher = more cleavage; co-transcriptional.
With G19C U43A, the self-cleavage was determined as 0.127.

Take G19A U46G: the self-cleavage was 0.151.

With G19A U46C, the self-cleavage stood at 0.103.

As to U20A G37C, the self-cleavage came out at 0.156.

As for U20A G37A, the self-cleavage is 0.13.

As for G19A U36A, the self-cleavage is 0.0999.

As to G19A U36G, the self-cleavage came out at 0.165.

On to G19U C54U, for which the self-cleavage came out at 0.625.

For G19U C54A, the self-cleavage came to 0.182.

Turning to G19U C54G, the self-cleavage is 0.317.

On to U20A C32G, for which the self-cleavage stood at 0.171.

In the case of U20A C32U, the self-cleavage stood at 0.148.

For the variant U20A C32A, the self-cleavage turned out to be 0.153.

Take U20A G25A: the self-cleavage was found to be 0.198.

U20A G25U: the self-cleavage turned out to be 0.135.

Turning to U20A G25C, the self-cleavage is 0.165.

Regarding G19C G31A, the self-cleavage came to 0.132.

In the case of G19C G31C, the self-cleavage amounted to 0.153.

Regarding G19C G31U, the self-cleavage worked out at 0.217.

Turning to G19U U20C, the self-cleavage turned out to be 0.166.

For G19U U20A, the self-cleavage was found to be 0.0978.

Turning to G19C C35A, the self-cleavage came out at 0.154.

For G19C C35G, the self-cleavage turned out to be 0.149.

Consider U20A C34G, for which the self-cleavage stood at 0.196.

For U20A C34A, the self-cleavage came out at 0.196.

Take U20A C34U: the self-cleavage amounted to 0.0989.

G19A U55A: the self-cleavage turned out to be 0.185.

As for G19A U55C, the self-cleavage stood at 0.218.

For the variant G19A U55G, the self-cleavage was 0.099.

Consider U20A, for which the self-cleavage came out at 0.157.

As to U20A A51G, the self-cleavage is 0.186.

As to U20A A51U, the self-cleavage is 0.153.

Regarding U20A A51C, the self-cleavage was 0.151.

Regarding U20A C29A, the self-cleavage was 0.194.

As to U20A C29U, the self-cleavage came out at 0.155.

For the variant U20A C29G, the self-cleavage was 0.157.

As to G19C A52C, the self-cleavage was found to be 0.195.

G19C A52U: the self-cleavage is 0.189.

As for G19C A52G, the self-cleavage was 0.134.

As for G19C U49C, the self-cleavage worked out at 0.104.

Turning to G19C U49G, the self-cleavage came out at 0.182.

As to G19A G50A, the self-cleavage came to 0.197.

Take G19A G50C: the self-cleavage was determined as 0.204.

Consider U20A A60G, for which the self-cleavage is 0.146.

For the variant U20A A60C, the self-cleavage was 0.114.

Regarding U20A G50C, the self-cleavage worked out at 0.188.

As for U20A G50U, the self-cleavage stood at 0.141.

In the case of U20A C57A, the self-cleavage was 0.195.

With U20A C57U, the self-cleavage turned out to be 0.152.

In the case of U20A C57G, the self-cleavage is 0.092.

As for G19U C66G, the self-cleavage is 0.27.

Turning to G19U C66A, the self-cleavage worked out at 0.271.

For the variant G19C C45G, the self-cleavage turned out to be 0.119.

With G19C C45A, the self-cleavage was found to be 0.178.

With G19C C45U, the self-cleavage amounted to 0.154.

G19A U43G: the self-cleavage was found to be 0.245.

Turning to G19C C34U, the self-cleavage came to 0.209.

As for G19C C34A, the self-cleavage was determined as 0.196.

Consider G19C C34G, for which the self-cleavage was 0.115.

For the variant G19U U61C, the self-cleavage was found to be 0.194.

Turning to G19U U61A, the self-cleavage was found to be 0.217.

In the case of G19U U61G, the self-cleavage turned out to be 0.262.

G19U G56A: the self-cleavage amounted to 0.301.

On to G19U G56C, for which the self-cleavage stood at 0.222.

Turning to U20A C45U, the self-cleavage was determined as 0.144.

With G19U A40U, the self-cleavage is 0.237.

Take G19U A40C: the self-cleavage worked out at 0.189.

G19U A40G: the self-cleavage worked out at 0.332.

In the case of G19A U69A, the self-cleavage is 0.184.

As to G19U U21C, the self-cleavage came out at 0.218.

As to G19A U49G, the self-cleavage was 0.181.

On to G19A U49A, for which the self-cleavage amounted to 0.2.

Take G19A U49C: the self-cleavage was found to be 0.163.

Take G19U U49G: the self-cleavage is 0.459.

As to G19U U49C, the self-cleavage came to 0.594.

Consider G19C U69G, for which the self-cleavage stood at 0.231.

On to G19C U69C, for which the self-cleavage was found to be 0.357.

Take G19A G58C: the self-cleavage is 0.168.

Consider G19A G58U, for which the self-cleavage is 0.194.

For G19C G68A, the self-cleavage amounted to 0.201.

G19C G68C: the self-cleavage came to 0.187.

For the variant G19C G68U, the self-cleavage amounted to 0.13.

G19C A51C: the self-cleavage is 0.122.

G19U U69A: the self-cleavage amounted to 0.739.

On to G19U U69C, for which the self-cleavage was determined as 0.925.

On to U20A G47A, for which the self-cleavage came out at 0.176.

For the variant G19U G30U, the self-cleavage was 0.166.

For the variant G19U G30A, the self-cleavage is 0.143.

Take G19A G68U: the self-cleavage was 0.232.

Regarding U20A A23C, the self-cleavage is 0.149.

With G19U G65A, the self-cleavage is 0.254.

For G19U G65C, the self-cleavage was 0.287.

For G19U G65U, the self-cleavage was determined as 0.148.

Take G19A G47C: the self-cleavage stood at 0.25.

Consider G19C U20C, for which the self-cleavage turned out to be 0.19.

Take G19C U20A: the self-cleavage stood at 0.109.

In the case of G19C U20G, the self-cleavage was 0.126.

On to G19C U67G, for which the self-cleavage stood at 0.159.

For G19C U67A, the self-cleavage was 0.0765.

On to G19U U62G, for which the self-cleavage amounted to 0.251.

G19U U62C: the self-cleavage worked out at 0.256.

Regarding G19U U62A, the self-cleavage was found to be 0.244.

For G19C C27G, the self-cleavage came out at 0.961.

Consider G19C C27U, for which the self-cleavage came to 0.116.

With G19A U26A, the self-cleavage came out at 0.19.

Regarding G19C G25C, the self-cleavage turned out to be 0.141.

As for G19C U21A, the self-cleavage came out at 0.109.

As for G19C U21C, the self-cleavage worked out at 0.142.

Regarding G19C C57A, the self-cleavage turned out to be 0.158.

For G19C C57G, the self-cleavage turned out to be 0.132.

With G19C C33G, the self-cleavage was found to be 0.142.

On to G19C C33U, for which the self-cleavage was found to be 0.181.

Regarding U20A G41C, the self-cleavage was 0.133.

In the case of U20A C27G, the self-cleavage was 0.152.

Turning to U20A C27U, the self-cleavage turned out to be 0.149.

Regarding U20A A40G, the self-cleavage was determined as 0.11.

G19C C22G: the self-cleavage was found to be 0.156.

In the case of G19C C22A, the self-cleavage was found to be 0.0962.

As for U20A A42G, the self-cleavage is 0.0639.

Turning to U20A A42C, the self-cleavage came to 0.0988.

On to G19U U26C, for which the self-cleavage came out at 0.256.

In the case of G19U U26G, the self-cleavage is 0.256.

As to G19U U26A, the self-cleavage came out at 0.272.

Consider G19C U36C, for which the self-cleavage turned out to be 0.0775.

For the variant G19C U36A, the self-cleavage is 0.188.

Turning to G19C U36G, the self-cleavage turned out to be 0.141.

As for G19U U64G, the self-cleavage was 0.192.

G19U U64C: the self-cleavage is 0.249.

For G19U U64A, the self-cleavage worked out at 0.233.

G19U C27A: the self-cleavage was 0.947.

For G19U C27G, the self-cleavage came out at 0.82.

On to G19C A23C, for which the self-cleavage worked out at 0.181.

For G19C A23U, the self-cleavage stood at 0.119.

As for G19C U46C, the self-cleavage came to 0.159.

As for G19C U46A, the self-cleavage is 0.177.

Consider G19C U53A, for which the self-cleavage amounted to 0.224.

On to G19C U53G, for which the self-cleavage was 0.158.

On to G19U G28A, for which the self-cleavage was determined as 0.122.

With G19U G28U, the self-cleavage turned out to be 0.116.

Take G19U G47U: the self-cleavage amounted to 0.64.

For G19U G48U, the self-cleavage amounted to 0.681.

With G19A G41A, the self-cleavage came out at 0.153.

As to G19A G41U, the self-cleavage turned out to be 0.142.

For G19A G41C, the self-cleavage came to 0.187.

As to G19U U44G, the self-cleavage is 0.398.

With G19U U44A, the self-cleavage stood at 0.354.

Take G19C G47C: the self-cleavage turned out to be 0.147.

Take G19C G47U: the self-cleavage amounted to 0.152.

As for G19U U67A, the self-cleavage stood at 0.479.

For G19U U67C, the self-cleavage was determined as 0.461.

For G19U U67G, the self-cleavage stood at 0.546.

With G19A G65U, the self-cleavage came to 0.159.

As to G19A G65A, the self-cleavage amounted to 0.0987.

For G19A G65C, the self-cleavage stood at 0.127.

Turning to G19U U46C, the self-cleavage was 0.499.

On to G19U U46A, for which the self-cleavage stood at 0.591.

G19U U46G: the self-cleavage is 0.596.

Take G19A G37U: the self-cleavage is 0.127.

As to G19A C66A, the self-cleavage was found to be 0.145.

Take G19A C66G: the self-cleavage is 0.146.

Take G19A C66U: the self-cleavage came to 0.162.

On to U20A G48A, for which the self-cleavage worked out at 0.124.

With G19A U38A, the self-cleavage was determined as 0.165.

For the variant G19A U38C, the self-cleavage is 0.16.

Take G19U U38G: the self-cleavage was 0.201.

Regarding G19U U38A, the self-cleavage came out at 0.227.

Take U20A G56A: the self-cleavage was found to be 0.184.

For the origin of these results see the RNAGym collection of RNA variant scans (doi:10.7554/elife.80360).
